Here are results for 14 sequences from the DeepSol protein solubility set.

The nature of the data set: soluble on expression in E. coli; label from the status in PepcDB or PDB records.
Regarding “MIDPREPIVTPVPVEELRPTQITVGMREVALKRQMIREQDAKKKTGAFLGKHMVPVVLGPKNRNYVTDHHHLARALLEEGVKDVLVTVISDLSALDKDTFLFVLDNRGWMHPFDESGRRRDYSAIPKTIGELIDDPYRSMAGELRRMGGFAKDTTPFSEFIWADFLRRRIDRNAVAKNFDKAMKEALSLAKGKDADYLPGWCGPTSDAAALEHHHHHH”, the “soluble on expression in E. coli” value was “soluble”.

In the case of “MSLSPALSAPKPLRFPANPAPTALKQFALTLQSESYRYRTPMKFGGRVVEEVTVLTAQCTATNQAGQVADGDQIGIGSMTMGVAWAWPDASVADGTKLEVVLELASRMAAQVNEASGTLTGHPMEICLQLASQREDLVAAVAAGHDLTAPIPELAILLAASPIEAALFDAHGKAAGQSSYSLLSAEHLPPDLGEMTGDDRYAGLRLDQFISSSPVATLPLYHLVGALDPLTQDDLAEPVGDGLPETLGEWITRNELTHLKIKLNGDDADWDFRRVRDINTVANETTDRGSSTGKPWWFSLDFNERCEDEAYVLGLLDRLESECPEAFERIQYIEQPTHRDLKRPGAVTMHQAAARIPVVIDESLTGLESLHLAVSQGYSGIALKACKGHAEALLLGAIAVHENLFLCVQDLTCVGASLLHSASLSAHIPGVAAVESNGRQYCPEGNAEWMACFGPMFEVRGGSVPTSCLDGPGLGYEGHHHHHH”, the “soluble on expression in E. coli” value was “soluble”.

Take “MTRKIDYLNYEEIQSLKNSLLHNIKHTYISRYMILTALYTGMRPGEIAVLTWSDIDFKNQTININKSYNHDKGRVDNYDSSEIDKSTKNTNSVRIIKVDKKFLDILSQLKQNDHEKIFIGKDGTIPTSNAVNKVWRKQLEKLNIDKPSFHFHSVRHTHVALLPFKGVPLYAISKRLGHANMSTTAKKYAYMLDELKQQVRLEHHHHHH”: the “soluble on expression in E. coli” value was “not soluble”.

Regarding “MSRGQIIHSGHFMCSNPHDDLVQDEDEEDVEVDVVEDDDKSMEASSSVHHKNKALDEKPVTFYKFGVGKTQSIAIDVSLNKLNKCIKVAYNKMTTPKWKDFKGLRLHWKQRVRLNNVIWRAYYIEFRKKQPEKPKKPFCYFAVPDDDTTHQKIEGSIVEGMYWKRKMEGVCAQYKRWRIRSKHNLVTDKGGMVATCSSTSVSSMTGELKRKRKHTVPKETIESKLRSYEPPVKLQRSQTPKHTISDEFAWDFDDLDNVFTDDFLNSLSEPYMFPDPRDVYSGNNADIMQPGLLPLQPTIEDIMMSLGDDMPDSPPFHNDRDTMRTPTNDQPSISAQQIPQMRRSASSSASLHQMQVAQAQAQSISQISQPSQQLQHQIQIQQPVAARPHEFMASSIMMDYRLMPTRQSSAITSQMLMLSQSASTLSSQPQYATSTHYSTNNSFLPIRNTMTNQHHLGHTSQHSPWNKQQQSNFLVSLPHQSHVERILNNQPPLVPPPSRSNLLPTQNDPYLPQFLQSTQPTPQPQSHDPMMAPSRSWWLDSPLTASVQSPLSVATPLPLANQTGPQTPLGQLIGSADNGFLFGGNNTPGGFKMSGTTSGVPTLSQRLEQPPISRTSTIFGNVENKPERIFTSLTSQNTPTPSPLDISSLSRLRTSSLNESWKMSHIVEGSPTYQAFAASVTTKPSILESPSTSGDISGPASVPVQASQHPPKIITPPSASSKRKEQEAAMAPLVNRQQSCDVNLLNGKMAVKVEEKSGRHYLPTTPTELKEVTKEEPLLMSAPSSVKSMRRQAPDSTLHPEERKRILHLHAEQNRRSALKDGFDQLMDIIPDLYSGGVKPTNAVVLAKSADHIRRLQAEKWDKTQKIDEAKAKIEKLNQKITSLQSNLPQSSAPSSSSQVDSKTSLETFFDRYVKEGAKKNWRFWVVSYLAEKLKFF”, the “soluble on expression in E. coli” value is on record as “not soluble”.

With “MLRSLLKSRQVICGLRELRALSTSQGNESIIDFVDTVTETSEAQNQSFASLLRNSKFMQLGDFNGRLVVGKIAQRVQEDVYIDFGLKFNAVCKVPALNSEAYRSGARVLIRLIDPELSERFLGSKHDLTLLEADAVLVRLLSNVPRQQQQRQKPRGATEEEAPAAPETPAAH”, the “soluble on expression in E. coli” value was “not soluble”.

Turning to “MELTVKDIQTWLDNYSKVIEEKKDYLSELDTPIGDGDHGNNMARGMAEYKIAFDKKVPTTITETFKVLSMALISKVGGASGPLYGTAFMNMTKATKDLETISSPEQLKEIVQQGLAGIQMRGKAEPGDKTMVDVWAPVAEVIGTEQFNEEKIEQFAEATKDWVAKKGRASYLGERAIGHIDPGAASSALLFEELVKVINQ”, the “soluble on expression in E. coli” value is reported as “not soluble”.

In the case of “MGSDKIHHHHHHMAFNQRTVVMIGPGEHYVTAKNEVIKTLLGSCVAVCLYDPKAQVIGMNHFLLAADRRKFTHFLDSRAGYYGVHAMEILINAMLKRGAQRKYLQSKIFGGANVLSLCADNILNHYDIGGMNIDFVRHFLQRERIPIISEDIGGHCGRVIYFDPTDYSVYRSLIEHKYEEIASLQDEEYRYFNQASEDIHSSGVPVVIWSD”, the “soluble on expression in E. coli” value is “not soluble”.

“MSLEALGVAVVGFGWMGRVHTQAYARVRHHYPHLALRPELVTVAEEVPGRAEEAAAQFGFASTTRDWREVAADPRVHAVSITAPNFLHREIAVAMAGAGKHIWVEKPVGLSSDDARAVADAVSGAGVQGAVGFNYRNAPAVETARRLIAAGEIGTVTHARLRFFSDYAAHPEGALTWRYERERGGSGVLGDLASHGADLARFLLGDIASLTADTAVFVPERARPASATAGHARATGGEPGPVENEDYVSCLLRFASGARGVLEACRVSVGEQNNYGFEVHGTTGAVFWDFRRMNELRVSRGTEYQDQPVSTVYVGPGDGEFAAFQPGAANAMGYDDLKVVEAHRFLRSIAEGTPYGATLSDAVHSAAVLEAMSRSAERGTWVSPGEGHHHHHH”: the “soluble on expression in E. coli” value is reported as “soluble”.

For the sequence “MNQTKTTTDDNKNSKPAETESTITVPEWITETINGGSFCHVDLETGTNGWASPPGNVFSLRSHNYFTATKQKSPGGDYLLSLAAVDWLKSTTKKLDHILSRPDNRVIHAFKTSQSRSFIFAVNFQVPGKEHYNLVFYFATQKPIPSDSLLHKFINTDEDSFRNERFKIVSNVVKGPWVVKAAAGKFGAFVAGKAMKCTYYRGDNYFEVDVDISSSAIMTALIRFMLGYVTYLMVDIGFVVEAQTAEELPERLIGGARICHMELSSSFLVDDDEKKSLQPRRRMMGAAEDNDDEI”, the “soluble on expression in E. coli” value is “soluble”.

Turning to “MLTGLKIAVIGGDARQLEIIRKLTEQQADIYLVGFDQLDHGFTGAVKCNIDEIPFQQIDSIILPVSATTGEGVVSTVFSNEEVVLKQDHLDRTPAHCVIFSGISNAYLENIAAQAKRKLVKLFERDDIAIYNSIPTVEGTIMLAIQHTDYTIHGSQVAVLGLGRTGMTIARTFAALGANVKVGARSSAHLARITEMGLVPFHTDELKEHVKDIDICINTIPSMILNQTVLSSMTPKTLILDLASRPGGTDFKYAEKQGIKALLAPGLPGIVAPKTAGQILANVLSKLLAEIQAEEGK”, the “soluble on expression in E. coli” value is “soluble”.

With “MSPLSGSLAPLNMKGLVKFQDVSFAYPNHPNVQVLQGLTFTLYPGKVTALVGPNGSGKSTVAALLQNLYQPTGGKVLLDGEPLVQYDHHYLHTQVAAVGQEPLLFGRSFRENIAYGLTRTPTMEEITAVAMESGAHDFISGFPQGYDTEVGETGNQLSGGQRQAVALARALIRKPRLLILDQATSALDAGNQLRVQRLLYESPEWASRTVLLITHQLSLAERAHHILFLKEGSVCEQGTHLQLMERGGCYRSMVEALAAPSDAAAHHHHHH”, the “soluble on expression in E. coli” value was “soluble”.

On to “MGFSFLLATVQKERMKRRSRTRSRSRRRAKQDPKTWVARYIPQDLLIEILTRLPPKSVMRFKCVSKFWSSLLSSRYFCNRFLIVPSQPQPSLYMCLLDRYNYSKSLILSSAPSTSPYSFVFDQDLTIRKMGGFFLRILRGFIFFTRNLKARIYNPTTRQLVILPTIKESDIIAGPPYNILYFICHDPVNDRYKLLCTVSYASDNDLQNLKSELWIFVLEAGGSWKRVANEFPHHVPSHLDLNMNGVLYFLAWTDPHTCMLVSFDVRSEEFNTMQVPRNAGDTLPRQEKGVVNRVW”, for which the “soluble on expression in E. coli” value is listed as “not soluble”.

As to “MPCVFQIWEKGMEKQEIGIYGREKMFMRKKENELQIDWKHFYLGVLALVIPMALQNLINVGVTAADVVMLGRVGETALSGSSLAGQVQY”, the “soluble on expression in E. coli” value is “not soluble”.

For “MLEDYAISLEEVNFNDFIVVDVRELDEYEELHLPNATLISVNDQEKLADFLSQHKDKKVLLHCRAGRRALDAAKSMHELGYTPYYLEGNVYDFEKYGFRMVYDDTCDKKN”, the “soluble on expression in E. coli” value is given as “soluble”.
